This is an account of results in US20050207981A1, “Compositions and methods for determining substrate specificity of hydrolytic enzymes” (The Regents of the University of California, priority 2003, published 2005).

The subject of the data set is C[C@H](NC(=O)[C@H](C)NC(=O)[C@H](CCCNC(=N)N)NC(=O)[C@H](CCCNC(=N)N)NC(=O)c1cc(F)ccc1O)C(N)=O. In words: purified protein, by the assay type. The settings on record: other: detailed kinetic analysis of substrate hydrolysis; pH 8.0; 25.0 °C.

Description: The combinatorial tetrapeptide library thus obtained was used to assay the substrate specificity of bovine p-chymotrypsin as follows. A 1 μL aliquot of each library member in DMSO was diluted to 100 μL in one well of a black polystyrene 96-well plate with a solution containing 50 mM Tris-HCl pH 8.0, 100 mM NaCl, 20 mM CaCl2, 10 μM [Tb(EDTA)]+and 10 μM enzyme. The resulting mixture was allowed to react at 25° C. for 30 min. Hydrolysis was followed by observing the increase in fluorescence at 546 nm upon excitation at 250 nm.
To elucidate any cooperativity between subsites, a series of single substrates was synthesized and assayed with chymotrypsin. […] Peptide sequences were designed to compare the most reactive amino acid in each sublibrary (Arg) with an amino acid with moderate reactivity and neutral functionality (Ala). Alanine, a small, neutral amino acid, was included in the P4′ position in all peptides, providing extended backbone interactions to enhance turnover. The kinetic data obtained from single substrate hydrolysis were analyzed using the standard Michaelis-Menten equation.

Take bovine α-chymotrypsin (Bos taurus): the Km (in general, the concentration of substrate that gives half-maximal velocity) was found to be 500 ± 100 µM; the kcat (commonly the maximal rate divided by the concentration of active sites) amounted to 2.2 ± 0.2 s⁻¹; the kcat/Km (as a rule, the second-order rate constant that governs catalysis at low substrate concentration) is 4400 ± 1000 M⁻¹ s⁻¹.
